This passage reports Km, kcat and kcat/Km results from PMC8789516, “Polyphenol oxidase and enzymatic browning in apricot (Prunus armeniaca L.): Effect on phenolic composition and deduction of main substrates” (Current Research in Food Science, 2022).

The term Km denotes the substrate concentration at which the rate is half of its maximum. For orientation: kcat means the maximal rate divided by the concentration of active sites. The kcat/Km is the second-order rate constant that governs catalysis at low substrate concentration.

What all share (settings): pH 7.0, 50 mM Tris-HCl, 25 °C, 2 mM SDS as activator of the latent enzyme
The target of data set [1] is T1, L-PaPPO (recombinant latent apricot polyphenol oxidase) (Prunus armeniaca, UniProt O81103, S149R/A376C/R416N/V417C).
T1 construct: gene PPO

Substrate in data set [2]: NCCc1ccc(O)c(O)c1
As to the kind of experiment: purified protein. It counts as biochemical, Prunus armeniaca.

Substrate in data set [3]: NCCc1ccc(O)cc1
The data set can be described thus: purified protein. It counts as biochemical, Prunus armeniaca.

Consider `O=C(/C=C/c1ccc(O)c(O)c1)O[C@@H]1C[C@@](O)(C(=O)O)C[C@@H](O)[C@@H]1O` [Neochlorogenic acid], for which the Michaelis constant (Km) in data set [1] came to 1470 ± 290 µM.
Same read-out and setting: next, `O=C(/C=C/c1ccc(O)c(O)c1)O[C@@H]1C[C@](O)(C(=O)O)C[C@@H](O)[C@H]1O` [Chlorogenic acid]: 1520 ± 100 µM.

B1: L-PaPPO (recombinant latent apricot polyphenol oxidase) (Prunus armeniaca; A376C/R416N/S149R/V417C) (protein)
chain: DPIAPPDLTTCKPAEITPGGSETVPCCPPVTTKIKTFKPDLSIPLRTRPAAHQVTDEYLAKFKKAQAAMRALPDDDPRSMVQQAKVHCAYCNGAYPQVGFTDNDIQVHFSWLFFPFHRMYLYFYERILGKLIDDPTFALPYWNWDSPVGFPIPDIYTDTSSPLYDQYRNADHQPPVLVDLSYGGKDDDVDEQTRIDENLAIMYRQMVSGAKTPDLFFGHAYRAGNLNTGKYPGTIENMPHNNIHIWVGDPSQTHQEDMGNFYSAGRDPLFYAHHCNVDRMWNIWKTLGGKRKDITDTDWLDAEFLFYDENAELVNCKVRDSLEPEKQLRYNYEPVSLPWLFTKPTARKTKNKTKAKVAATQLTSKFPATLVEVTTVEVARPKPRKRSKKEKVDEEELLIIKDIEFEGTEAVKFDVFINDDAESLSRRDKSEFAGSFVHVPQGKTTKAKTKTNLKLGITDLLEDLGAEDDSSVLVTLVPRVSNSPITIGGFKIEYSS
notes: latent form Asp102-Ser597 (active plus C-terminal domain), signal peptide removed; Gly-Pro-Met left after HRV 3C cleavage of GST; E. coli SHuffle T7; intron removed
As to B1, in data set [2], the Michaelis constant (Km) was 1610 ± 160 µM, the kcat stood at 162 ± 3.3 s⁻¹ and the kcat/Km was determined as 99800 ± 2900 M⁻¹ s⁻¹. Further, in data set [3], the Km is 4480 ± 360 µM, the kcat was found to be 1.42 ± 0.13 s⁻¹ and the kcat/Km came out at 318 ± 29 M⁻¹ s⁻¹.
